In paper PMC10164062 (Cancer discovery, 2023):

Biological target: the molecule itself
Assay: cross-linking

B1: p53R245W (mouse, DNA binding domain mutant) (natural protein, mouse (endogenous in MEFs), UniProt P02340 1-390, looked up)
chain: MTAMEESQSDISLELPLSQETFSGLWKLLPPEDILPSPHCMDDLLLPQDVEEFFEGPSEALRVSGAPAAQDPVTETPGPVAPAPATPWPLSSFVPSQKTYQGNYGFHLGFLQSGTAKSVMCTYSPPLNKLFCQLAKTCPVQLWVSATPPAGSRVRAMAIYKKSQHMTEVVRRCPHHERCSDGDGLAPPQHLIRVEGNLYPEYLEDRQTFRHSVVVPYEPPEAGSEYTTIHYKYMCNSSCMGGMNWRPILTIITLEDSSGNLLGRDSFEVRVCACPGRDRRTEEENFRKKEVLCPELPPGSAKRALPTCTSASPPQKKKPLDGEYFTLKIRGRKRFEMFRELNEALELKDAHATEESGDSRAHSSYLKTKKGQSTSRHKKTMVKKVGPDSD
stoichiometry N: 4
